In the first experiment the target is human neonatal Fc-receptor (FcRn), soluble extracellular domain with His-Avi Tag, co-expressed with beta-2-microglobulin (human) (UniProt P55899). Briefly: FcRn affinity chromatography.
Sequence of human neonatal Fc-receptor (FcRn), soluble extracellular domain with His-Avi Tag, co-expressed with beta-2-microglobulin (human) (P55899 24-297 limits assumed, chain 1 of 2): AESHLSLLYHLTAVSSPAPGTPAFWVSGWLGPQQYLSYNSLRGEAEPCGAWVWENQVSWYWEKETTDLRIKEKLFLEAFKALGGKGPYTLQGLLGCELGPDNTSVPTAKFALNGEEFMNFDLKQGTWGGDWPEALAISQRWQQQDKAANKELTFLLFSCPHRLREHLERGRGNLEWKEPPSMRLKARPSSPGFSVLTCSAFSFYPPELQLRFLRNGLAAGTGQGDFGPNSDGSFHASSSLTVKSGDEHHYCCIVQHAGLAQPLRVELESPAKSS
Sequence of human neonatal Fc-receptor (FcRn), soluble extracellular domain with His-Avi Tag, co-expressed with beta-2-microglobulin (human) (P61769 21-119 limits assumed, chain 2 of 2, further chain): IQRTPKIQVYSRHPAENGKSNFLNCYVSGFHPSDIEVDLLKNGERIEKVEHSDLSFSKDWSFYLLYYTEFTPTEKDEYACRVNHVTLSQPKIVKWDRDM
The substance “bispecific antibody (not identified, knobs-into-holes), one chain with M252Y/S254T/T256E” had a retention time on FcRn affinity column of 56.2 min. The same measure, in the same setting: the value for “bispecific antibody (not identified) assembled using the knobs-into-holes technology, no FcRn affecting mutation” was 51.8 min; that for “bispecific antibody (not identified, knobs-into-holes), one chain with I253A/H310A/H435A” was 46.6 min; that for “bispecific antibody (not identified, knobs-into-holes), one chain with H310A/H433A/Y436A” was 46.7 min. For the substance “IgG1 antibody (not identified) with L234A/L235A/P329G and H435A in both Fc-region polypeptides”, the relative shift of retention time fell in the range of 0.3 to 0.4 min. On to “bispecific antibody (not identified, knobs-into-holes), one chain with H310A”, for which the retention time on FcRn affinity column worked out at 48.4 min.

On to “bispecific antibody (not identified, knobs-into-holes), one chain with I253A”, for which the retention time on FcRn affinity column was 48.8 min. Take “bispecific antibody (not identified, knobs-into-holes), one chain with L251D/L314D/L432D”: the retention time on FcRn affinity column is 46.3 min. In the case of “IgG1 antibody (not identified) with L234A/L235A/P329G and I253A in both Fc-region polypeptides”, the relative shift of retention time lay within 0.3 to 0.4 min. Turning to “bispecific antibody (not identified, knobs-into-holes), one chain with H435A”, the retention time on FcRn affinity column is 48.8 min.

For the next experiment the target is unchanged. Kind of experiment: FcRn affinity chromatography, pH gradient.
Substance “IgG1 antibody (not identified) with L234A/L235A/P329G and Y436A in both Fc-region polypeptides” registered a FcRn-affinity column retention time of 41.3 min.
